Data on six molecules can be found in patent publication US20260231954A1, “PESTICIDAL ENZYMES FOR USE ON NEMATODES, INSECTS, AND MOLLUSKS” (priority 2023, published 2026).

In experiment [1] the test system is Fall armyworm (Spodoptera frugiperda). The experiment can be described thus: Diet-surface overlay (DSO) bioassay on Fall armyworm. The class given is in vivo. How it is done: (§1) Diet-surface overlay bioassays are conducted with artificial diet mixes without antibiotics in 1.5 cm^2 cell bioassay trays(s). Artificial diets are commercially available from Southland Products Inc. Diets were prepared by dispersing 0.5 mL of molten diet to each 1.5 cm^2 cell. After solidification, 0.1 mL enzyme treatments were dispersed on top of diet in each cell and the tray was gently rocked in an orbital shaker to spread the liquid uniformly over the diet surface. Trays were placed under clean airflow until the surface of each cell was uniformly dried. One or two 16-cell sections were used per treatment (the number in larvae treated was 16 or 32).
(§2) One healthy first instar larva was placed into each treatment cell, each 16-cell section was covered with a re-sealable lid and incubated at 27° C. and light-dark period of 16:8 hrs. After 7 days, and according to the species, the number of individuals in the following developmental categories was recorded.
(§3) Negative/untreated controls were treated with filtered water and positive controls were treated with lethal doses of Bacillus thuringiensis subsp. Kurstaki (Btk) spores at 1000 ppm.

Experiment [2] relates to Btk resistant Diamondback moth. In words: Diet-surface overlay (DSO) bioassay on Btk resistant Diamondback moth. The class given is in vivo, Plutella xylostella. To be noted: number of individuals, n = 32, 7 days. As for the experimental part: as §1, §2
Diamondback moth (Plutella xylostella): Dead Larva (lack of movement), Larva Stage I (≤50% relative size), Larva Stage II (100% relative size, full size), Early Pupa (light green color), Late Pupa (light-dark brown color), and Adult.
as §3
However, both neutral proteases reduced the number of individuals reaching adult stage.
The effect of lipase (10× enzyme rate) and free lipases were tested on a Diamondback Moth Btk resistant strain. Free Lipases from Burkholderia cepacia (Bc) and Pseudomonas fluorescens (Pf) were tested along with Lipase (SEQ ID NO: 76) and the results are shown below in Table 45.

The test system of experiment [3] is soybean cyst nematode (SCN, Heterodera glycines). The experiment can be described thus: Soybean cyst nematode reproduction on soybean after seed treatment, controlled environment (cysts per gram of root tissue or per plant). The experiment is classed as in vivo.
Setting [4] is: Table 50, esterases, Fall armyworm, number of individuals of n = 32.
The mark [5] stands for this setting: Table 50, esterases, Fall armyworm, number of individuals of n = 32, DSO bioassay, dose per treatment in U/mL Diet.
The mark [6] stands for this setting: Table 48, chitinases, Fall armyworm, number of individuals of n = 32, DSO bioassay.
Where [7] appears, read: Table 46, number of individuals, n = 32, 7 days.

B1: H6-pytH (SEQ ID NO: 95): recombinant six-histidine tagged esterase pytH from Sphingobium wenxiniae (protein, listed as Sphingobium wenxiniae)
chain: MTVTDIILIHGALNRGACYDAVVPLLEARGYRVHAPDLTGHTPGDGGHLSVVDMEHYTRPVADILARAEGQSILLGHSLGGASISWLAQHHPDKVAGLIYLTAVLTAPGITPETFVLPGEPNRGTPHALDLIQPVDEGRGLQADFSRLERLREVFMGDYPGEGMPPAEQFIQTQSTVPFGTPNPMEGRALEIPRLYIEALDDVVIPIAVQRQMQKEFPGPVAVVSLPASHAPYYSMPERLAEAIADFADAPAEYRQTATKAGPDRPAGADGGRADRADLP
modifications: Esterase (pytH)
As to B1, in experiment [1] (setting [4]), the “Larva Stage I” value was found to be 0, the “Larva Stage II” value was 0, the “Larva Stage III” value was determined as 13 and the “Larva Stage IV” value was determined as 19. Also, in experiment [1] (setting [5]), the “Dead Larva” value came out at 0.

B2: H6-pnbA (SEQ ID NO: 94): recombinant six-histidine tagged esterase pnbA from Bacillus subtilis (protein, listed as Bacillus subtilis)
chain: MTHQIVTTQYGKVKGTTENGVHKWKGIPYAKPPVGQWRFKAPEPPEVWEDVLDATAYGSICPQPSDLLSLSYTELPRQSEDCLYVNVFAPDTPSKNLPVMVWIHGGAFYLGAGSEPLYDGSKLAAQGEVIVVTLNYRLGPFGFLHLSSFNEAYSDNLGLLDQAAALKWVRENISAFGGDPDNVTVFGESAGGMSIAALLAMPAAKGLFQKAIMESGASRTMTKEQAASTSAAFLQVLGINEGQLDKLHTVSAEDLLKAADQLRIAEKENIFQLFFQPALDPKTLPEEPEKAIAEGAASGIPLLIGTTRDEGYLFFTPDSDVHSQETLDAALEYLLGKPLAEKVADLYPRSLESQIHMMTDLLFWRPAVAYASAQSHYAPVWMYRFDWHPKKPPYNKAFHALELPFVFGNLDGLERMAKAEITDEVKQLSHTIQSAWITFAKTGNPSTEAVNWPAYHEETRETLILDSEITIENDPESEKRQKLFPSKGE
modifications: Esterase (pnbA)
Regarding B2, in experiment [1] (setting [4]), the “Larva Stage I” value was 0, the “Larva Stage II” value stood at 0, the “Larva Stage III” value is 15 and the “Larva Stage IV” value is 17. The “Dead Larva” value in experiment [1] (setting [5]) is 0.

B3: Chitinase (SEQ ID NO: 185): recombinant chitinase from Akanthomyces lecanii; Acidic Chitinase 1 (Chit1) (protein, listed as Akanthomyces lecanii)
chain: MAKCTSPDRKCPAPLIDAPINSFMTDGWADTDIHWEGDSWNDSGTNIYGCLKQLNILKKHNRNFKVLLSIGGWTYSSNFPAPASTPEGRDTFAKSCVELVKNLGFDGIDIDWEYPKTAEEAGHFVELLAEVRKQLDEYSARAANNYHFELSVACPAGPDNFQKLNISGMDAYLDFWNLMAYDYAGSWDKNSGHQANLYPCKDAPGCTPFSTVAAVDYYTSNGVSPDKLVLGMPLYGRAFENCDGIGQPFQGVGQGTWEQGVYDYKKLPLEGAEEHKDDDSCATYCHNAESRTLVTYDTPELAKTKADFIKERGLGGGMWWESSADKAGDDSLIQVVVSELGGPEALKQQQNCISYPETKYDNLRDGLPDN
modifications: Acidic Chitinase 1 (Chit1-H195)
Turning to B3, in experiment [1] (setting [6]), the “Larva Stage I” value was 4, the “Larva Stage II” value is 5, the “Larva Stage III” value is listed as 8 and the “Larva Stage IV” value is 8. In addition, the “Dead Larva” value in experiment [1] (Table 48, chitinases, Fall armyworm, number of individuals of n = 32, DSO bioassay, dose per treatment in mU/mL Diet) is 7. The “Dead Larva” value in experiment [2] (Table 47, chitinases, rate in mU/mL diet column) was 2. Besides, in experiment [2] (Table 47), the Adult was 1, the “Early Pupa” value was 8, the “Larva Stage I” value turned out to be 2 and the “Larva Stage II” value is on record as 2. In addition, the “Late Pupa” value in experiment [2] (Table 47) amounted to 17.

B4: Trypsin-like protease (SEQ ID NO: 126): Trichoderma lixii trypsin-like protease (protein, listed as Trichoderma lixii)
chain: AAITPRGSDIVGGTTAALGEFPYIVSLSTGGSHFCGGVLIDSRTVVTAGHCTIDQRASSVKVRAGTLTWASGGTQVGVSSLTLHPSYTVDSQGVPDNDVGVWHLATAIPTSSTIGYATLPASGSDPAAGTTLTVAGWGTTSENSNSLPSTLRKVSVPVVARATCDSDYDGEISNNMFCAAVAAGGKDSCSGDSGGPIIDPSGTLVGVVSWGQGCAERGFPGVYTRLGNYVSFINSNRG
modifications: H182 trypsin-like protease
As for B4, the “Average cysts per g of root tissue” value in experiment [3] (Table 11, free enzyme seed treatment 2 fl. oz. per unit of seed (ILEVO 0.15 mg active ingredient per seed), soybean P18A98X, 3 weeks after inoculation) is reported as 18.6 cysts per g of root tissue.

B5: Lipase: lipase of Table 46, not further identified; probably Lipase (SEQ ID NO: 76) (protein, listed as Bacillus thuringiensis)
chain: MRLMRRCVALLIVFFIMAPMISTNVRAGVVKELKTGFPDQEVFTPGEWFLGQKPANYDENKPPILFVQGRNGNADSWYGKTVYHDINDMYDYALKAGYQTVFIQLYDAAGKGSASQWDNGKLLAQKLEEIYNHFGKKVNIVAHSKGGIDTQAALVGYGANRFVGNVITLATPHHGSNLADLSYSWWAGWLASILGQKDDGTYSLQMGEMAKFRSTIDNNPAAKLNRYYTVTGTSWGPVFSALSMGGLYLSSYGSNDGLVNECSAKLPYGTHLFTDSRFDHDNIRKGSAVFARIEPYLRTANVPVPALVASSTSSNENIEQLNTTSNQSILGGELPQNQWIEQTVAVDKKAEGIVSILTASSDVEVQMISPKGKVYTNKDSVITTGEGESFFGGATIRTFKFDKMDVGEWKVKMMTKQSKDAYLVVSDYKTGAPFVLQMPTKVKANKSEYKLKKSPVAPEMKGDLSITVRVVNKEGKLVSEFNELQNVNNNTFTGALKNIKQPGVYNVTMDIKGMNKEGKSYSRTIVKSVYVEK
modifications: Lipase (Lip1 H192)
Take B5: the “Dead Larva” value in experiment [1] (Table 46, lipases, number of individuals, n = 32, 7 days) was determined as 5. Further, in experiment [1] (setting [7]), the “Larva Stage I” value turned out to be 2, the “Larva Stage II” value was found to be 10, the “Larva Stage III” value was determined as 15 and the “Larva Stage IV” value is 0.

B6: Pseudomonas sp. esterase free enzyme concentrate (SEQ ID NO: 248): free enzyme concentrated in an Amicon Ultra 4K filter unit, 4× volumetric concentration (protein, listed as Pseudomonas sp.)
chain: MTEPLILQPVKPADACVIWLHGLGADRYDFLPVAEALQEILLSTRFVLPQAPTRPVTINGGYAMPSWYDIKAMSPARAIDRDELEASADRIIELIEEQRSSGIDASRIFLAGFSQGGAVVYHTAFLKWQGPLGGVLALSTYAPTFSDELELSASQQRIPVLSLHGQFDNVVQNSMGRTAYEYLKAHGVTVTWQEYPMEHEVLPEEIRDIGTWLSERLR
modifications: concentrated
notes: free enzyme concentrated in an Amicon Ultra 4K filter unit, 4× volumetric concentration
Turning to B6, the “% Comparison to Control (figure in parentheses)” value in experiment [3] (Table 16, change vs base control) is −25%. In addition, in experiment [3] (Table 16, free enzyme or 4x concentrate seed treatment, soybean 2830E3), the “Average cysts per g of root tissue” value is recorded as 182.1 cysts per g of root tissue.
